According to PMC9851988:

Target: His7-SUMO-Arc-C11^CFAS (not stated | E. coli)
Experiment: BLI

equilibrium response signal relative to His7-SUMO-Arc-C11^CFAS/R11A: 6 fold
Substance: anhydrotrypsin (enzyme)
